The record followed here is US20050244915.

Positions count from the first letter of the chain named.

Data set [1] concerns the target GST HIF-1α 577-826, Q16665.
Data set [2] deals with T1, His6-HIF-1α 344-503, Q16665.
T1 chain: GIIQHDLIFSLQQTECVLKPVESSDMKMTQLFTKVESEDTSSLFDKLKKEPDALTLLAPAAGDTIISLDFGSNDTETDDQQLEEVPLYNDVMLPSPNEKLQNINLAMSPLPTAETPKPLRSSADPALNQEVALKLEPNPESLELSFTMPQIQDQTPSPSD

In the next data set the target is T2, HIF-1α 775-826, Q16665.
T2 chain: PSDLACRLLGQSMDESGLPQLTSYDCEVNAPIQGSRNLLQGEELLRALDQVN

Data set [3] deals with GST HIF-1α 775-826 [GST: P08515].
In data set [4] the target is GST HIF-1α 775-826 N803Q, Q16665.
The target of data set [5] is T3, His6-HIF-1α 530-698, Q16665.
T3 chain: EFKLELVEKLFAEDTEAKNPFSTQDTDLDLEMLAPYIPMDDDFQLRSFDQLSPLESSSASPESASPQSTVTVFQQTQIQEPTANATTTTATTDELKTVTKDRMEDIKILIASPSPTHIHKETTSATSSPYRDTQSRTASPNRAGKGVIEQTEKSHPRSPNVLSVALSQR

The target in data set [6] is GST HIF-1α 775-826 N803D, Q16665.
Data set [7] addresses T4, GST HIF-1α 530-652, Q16665.
T4 chain: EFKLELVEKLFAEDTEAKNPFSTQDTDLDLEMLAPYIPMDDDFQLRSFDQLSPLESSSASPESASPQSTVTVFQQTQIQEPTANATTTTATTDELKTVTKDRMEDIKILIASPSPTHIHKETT

For data set [8], the target named is GST HIF-1α 775-826 N803E, Q16665.
A further data set concerns the target T5, GST HIF-1α 775-826 N803A.
T5 chain: T2 chain with N29A

B1: Factor Inhibiting HIF (FIH), recombinant (protein)
chain: MAATAAEAVASGSGEPREEAGALGPAWDESQLRSYSFPTRPIPRLSQSDPRAEELIENEEPVVLTDTNLVYPALKWDLEYLQENIGNGDFSVYSASTHKFLYYDEKKMANFQNFKPRSNREEMKFHEFVEKLQDIQQRGGEERLYLQQTLNDTVGRKIVMDFLGFNWNWINKQQGKRGWGQLTSNLLLIGMEGNVTPAHYDEQQNFFAQIKGYKRCILFPPDQFECLYPYPVHHPCDRQSQVDFDNPDYERFPNFQNVVGYETVVGPGDVLYIPMYWWHHIESLLNGGITITVNFWYKGAPTPKRIEYPLKAHQKVAIMRNIEKMLGEALGNPQEVGPLLNTMIKGRYN
Regarding B1, the % activity relative to 775-826 peptide in data set [1] is 67%; in data set [2], under 0.01%; with HIF-1α 775-826, Q16665, 100%; in data set [3], 96%; in data set [4], under 0.01%; in [5], under 0.01%. The % activity relative to 775-826 peptide in data set [6] was 7%; in data set [7], 1.8%; in [8], under 0.01%; in the data set with GST HIF-1α 775-826 N803A it was under 0.01%. The CO2 released was 0.81 nmol in data set [1]; under 0.001 nmol in data set [2]; 2.8 nmol with HIF-1α 775-826, Q16665; 2.7 nmol in data set [3]; under 0.001 nmol in [4]; under 0.001 nmol in data set [5]. For the same protein, the CO2 released was 0.22 nmol in data set [6], 0.05 nmol in [7], under 0.001 nmol in data set [8] and under 0.001 nmol with GST HIF-1α 775-826 N803A. For the same protein, the “Km(peptide), 2-OG turnover assay” value with HIF-1α 775-826, Q16665 was “Km(peptide)=10 µM”. Moreover, the “Vmax, 2-OG turnover assay” value with HIF-1α 775-826, Q16665 is on record as “Vmax=0.3 µmol/min/mg”. In the data set with HIF-1α 775-826, Q16665, the “mass increase of the substrate after reaction (mass spectrometry)” value is recorded as “an increase in mass of 16Da was observed after HPLC isolation of product”.
